In assay [1] the target is T1, cynomolgus SIRPβ1v3 (XP_005568593) extracellular domain + His-tag (cynomolgus monkey).
T1 construct: SPR analyte; also called Cyno SIRPβ1v3 XP_005568593; cynoSIRPβ1v3; not shown: His-tag
T1 chain: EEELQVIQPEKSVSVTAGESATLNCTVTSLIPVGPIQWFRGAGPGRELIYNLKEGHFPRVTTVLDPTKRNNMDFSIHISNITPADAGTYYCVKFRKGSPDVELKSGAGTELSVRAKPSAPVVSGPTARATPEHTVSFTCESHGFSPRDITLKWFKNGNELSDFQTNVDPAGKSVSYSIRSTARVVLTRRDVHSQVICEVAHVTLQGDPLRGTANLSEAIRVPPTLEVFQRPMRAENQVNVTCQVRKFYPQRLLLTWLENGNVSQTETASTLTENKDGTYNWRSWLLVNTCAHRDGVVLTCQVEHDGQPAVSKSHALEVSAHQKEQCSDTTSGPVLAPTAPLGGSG
Nature of the assay: SPR, antibody captured, ECD-His analyte. The method, then:
(§1) The binding affinity of anti-SIRPα antibodies to the various SIRPα analytes is determined by surface plasmon resonance (SPR) using a ProteOn XPR36 (Bio-Rad). The running buffer for this experiment and all dilutions (except where stated) are done in 1×HBS-EP+. […] The sensorchip is deactivated with 1M ethanolamine HCl for 420 sec at a flowrate of 10 μl/min.
(§2) The analyte is injected over the captured antibody for 300 sec at a flowrate of 30 μl/min. The dissociation is done for 600 sec. Two-fold serial dilutions of each SIRP protein (Extracellular Domain+His-Tag) are injected as analyte with the highest concentrations indicated in table 36 below.
In general terms: SPR reads the build-up and loss of mass on a sensor chip optically.

Assay [2] deals with T2, cynomolgus SIRPα (EGM_02252) extracellular domain + His-tag (cynomolgus monkey).
T2 construct: SPR analyte; also called CySIRPα EGM_02252; cynoSIRPα; not shown: His-tag
T2 chain: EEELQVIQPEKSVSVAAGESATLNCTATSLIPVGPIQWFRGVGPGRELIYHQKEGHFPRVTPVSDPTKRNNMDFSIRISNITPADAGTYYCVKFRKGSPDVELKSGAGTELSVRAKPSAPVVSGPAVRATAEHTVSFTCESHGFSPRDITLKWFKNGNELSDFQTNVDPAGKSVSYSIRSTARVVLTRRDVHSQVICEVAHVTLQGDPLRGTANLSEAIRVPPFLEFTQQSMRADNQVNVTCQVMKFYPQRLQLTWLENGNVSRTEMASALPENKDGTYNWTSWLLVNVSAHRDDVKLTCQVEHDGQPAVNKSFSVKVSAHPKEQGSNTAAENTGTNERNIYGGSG
Nature of the assay: SPR. As for the experimental part:
as §1, §2

Assay [3] has as its target T3, cynomolgus SIRPβ1 (XP_005568598) extracellular domain + His-tag (cynomolgus monkey).
T3 construct: SPR analyte; also called Cyno SIRPβ1 XP_005568598; cynoSIRPβ1; not shown: His-tag
T3 chain: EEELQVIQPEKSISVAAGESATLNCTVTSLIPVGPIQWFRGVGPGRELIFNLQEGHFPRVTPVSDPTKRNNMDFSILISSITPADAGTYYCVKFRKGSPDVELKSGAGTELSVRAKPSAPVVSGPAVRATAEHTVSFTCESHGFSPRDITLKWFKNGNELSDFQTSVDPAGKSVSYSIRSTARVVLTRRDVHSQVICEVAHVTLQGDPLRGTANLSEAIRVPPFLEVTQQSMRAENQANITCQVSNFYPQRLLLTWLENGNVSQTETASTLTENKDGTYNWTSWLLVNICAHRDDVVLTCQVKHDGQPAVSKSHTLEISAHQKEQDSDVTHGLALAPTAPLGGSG
As to the kind of experiment: SPR. As for the experimental part:
as §1, §2

Assay [4] concerns the target T4, cynomolgus SIRPγ (XP_005568591) extracellular domain + His-tag (cynomolgus monkey, UniProt Q9P1W8 29-359 (human entry)).
T4 construct: SPR analyte; also called Cyno SIRPγ XP_005568591; cynoSIRPγ; not shown: His-tag
T4 chain: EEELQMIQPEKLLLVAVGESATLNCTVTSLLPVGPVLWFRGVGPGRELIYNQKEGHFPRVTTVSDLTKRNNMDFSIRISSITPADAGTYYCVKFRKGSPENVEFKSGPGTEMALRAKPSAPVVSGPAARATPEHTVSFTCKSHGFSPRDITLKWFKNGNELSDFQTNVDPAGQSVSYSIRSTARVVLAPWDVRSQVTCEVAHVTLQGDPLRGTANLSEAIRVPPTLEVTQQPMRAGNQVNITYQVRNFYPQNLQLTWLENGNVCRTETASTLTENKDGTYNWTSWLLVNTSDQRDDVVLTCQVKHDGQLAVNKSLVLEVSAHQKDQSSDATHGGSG
As to the kind of experiment: SPR. As for the experimental part: as §1, §2

Positions count from the first letter of the chain named.

B1: Antibody E7 (antibody, human IgG1, kappa, L234A L235A, V domains shown)
VH: QVQLQESGPGLVRPSETLSLTCTVSGGSIRNYYWSWIRQPPGKGLEWIGFIYYNGRTFYNPSLKSRVTISLDTSKNQFSLKMTSVTAADTAVYYCARVRAYSGIGLDGTDVWGQGTTVTVSS
VL: DIVMTQSPLSLPVTPGEPASISCKSSQSLLYSNGYAYLDWYLQRPGQSPQLLIYQGSNRASGVPDRFSGSGSGTDFTLKISRVEAEDVGVFYCMQALQTPLTFGGGTKVEIKR
B1: the Kd (in general, the constant that tells how readily two partners part at equilibrium) in assay [1] was found to be 13.1 nM. Moreover, the binding result in assay [2], in assay [3] and in assay [4] was “no binding (tested: 1000 nM)” each time.

B2: Antibody E4 (antibody, human IgG1, kappa, L234A L235A, V domains shown)
VH: B1 VH with T73M
VL: B1 VL with Q55L, F91Y
In the case of B2, the Kd in assay [1] was found to be 13.1 nM. The binding result in assay [2], in assay [3] and in assay [4] was “no binding (tested: 1000 nM)” in each case.

B3: Antibody E20 (antibody, human IgG1, kappa, L234A L235A, V domains shown)
VH: B1 VH with N54T, T73M, K75I
VL: B1 VL with G34A, A36N, Q55L, F91Y
Consider B3, for which, in assay [1], the Kd amounted to 57.4 nM. Also, the binding result in assay [2], in assay [3] and in assay [4] was “no binding (tested: 1000 nM)” throughout.

B4: Antibody E11 (antibody, human IgG1, kappa, L234A L235A, V domains shown)
VH: B1 VH with I48M, Y53D, T73M, K75M
VL: B1 VL with Q55L, F91Y
Consider B4, for which the Kd in assay [1] is 13.2 nM. Moreover, the binding result in assay [2], in assay [3] and in assay [4] was “no binding (tested: 1000 nM)” each time.

B5: Antibody E14 (antibody, human IgG1, kappa, L234A L235A, V domains shown)
VH: B1 VH with T73K
VL: B1 VL with G34A, A36N, Q55L, F91Y
Regarding B5, in assay [1], the Kd was 51.9 nM. The binding result in assay [2], in assay [3] and in assay [4] was “no binding (tested: 1000 nM)” in each case.

B6: Antibody E8 (antibody, human IgG1, kappa, L234A L235A, V domains shown)
VH: B1 VH with I48M, Y53D, T73M, K75M
VL: B1 VL
Regarding B6, the Kd in assay [1] came to 10.8 nM. The binding result in assay [2], in assay [3] and in assay [4] was “no binding (tested: 1000 nM)” throughout.

B7: Antibody E18 (antibody, human IgG1, kappa, L234A L235A, V domains shown)
VH: B1 VH with N54T, T73M
VL: B1 VL with Q55L, F91Y
As to B7, the Kd in assay [1] turned out to be 27.8 nM. Moreover, the binding result in assay [2], in assay [3] and in assay [4] was “no binding (tested: 1000 nM)” each time.

B8: Antibody E12 (antibody, human IgG1, kappa, L234A L235A, V domains shown)
VH: B1 VH with T73M
VL: B1 VL with G34A, A36N, Q55L, F91Y
As for B8, the Kd in assay [1] is 27.9 nM. Also, the binding result in assay [2], in assay [3] and in assay [4] was “no binding (tested: 1000 nM)” each time.

B9: Antibody E17 (antibody, human IgG1, kappa, L234A L235A, V domains shown)
VH: B1 VH with I48M, Y53D, T73M, K75M
VL: B1 VL with G34A, A36N, Q55L, F91Y
As to B9, the Kd in assay [1] stood at 27 nM. Also, the binding result in assay [2], in assay [3] and in assay [4] was “no binding (tested: 1000 nM)” throughout.

B10: Antibody E21 (antibody, human IgG1, kappa, L234A L235A, V domains shown)
VH: B1 VH with N54T, T73M
VL: B1 VL with G34A, A36N, Q55L, F91Y
Consider B10, for which the Kd in assay [1] stood at 56.5 nM. The binding result in assay [2], in assay [3] and in assay [4] was “no binding (tested: 1000 nM)” throughout.

B11: Antibody E19 (antibody, human IgG1, kappa, L234A L235A, V domains shown)
VH: B1 VH with N54T, T73M
VL: B1 VL
Regarding B11, the Kd in assay [1] came out at 25 nM. Also, the binding result in assay [2], in assay [3] and in assay [4] was “no binding (tested: 1000 nM)” throughout.

B12: Antibody E9 (antibody, human IgG1, kappa, L234A L235A, V domains shown)
VH: B1 VH with T73M, K75I
VL: B1 VL with G34A, A36N, Q55L, F91Y
Take B12: in assay [1], the Kd worked out at 25.1 nM. Besides, the binding result in assay [2], in assay [3] and in assay [4] was “no binding (tested: 1000 nM)” in each case.

B13: Antibody E10 (antibody, human IgG1, kappa, L234A L235A, V domains shown)
VH: B1 VH
VL: B1 VL with Q55L, F91Y
For B13, the Kd in assay [1] is 15.7 nM. Moreover, the binding result in assay [2], in assay [3] and in assay [4] was “no binding (tested: 1000 nM)” each time.

B14: Antibody E13 (antibody, human IgG1, kappa, L234A L235A, V domains shown)
VH: B1 VH with N54T, T73M, K75I
VL: B1 VL
Regarding B14, the Kd in assay [1] is 20.5 nM. The binding result in assay [2], in assay [3] and in assay [4] was “no binding (tested: 1000 nM)” in each case.

B15: Antibody E15 (antibody, human IgG1, kappa, L234A L235A, V domains shown)
VH: B1 VH with N54T, T73M, K75I
VL: B1 VL with Q55L, F91Y
Consider B15, for which the Kd in assay [1] was determined as 25.8 nM. The binding result in assay [2], in assay [3] and in assay [4] was “no binding (tested: 1000 nM)” each time.

The record behind these values is patent publication US20230012273A1 (Boehringer Ingelheim, published 2023).
